# In doi:10.1101/439331:
# Like-named read-outs stand apart in the source and are kept apart here.
# T1: SCARECROW (SCR)-GFP translational fusion (SCR:SCR-GFP) (Arabidopsis), Q9M384
# T1 chain: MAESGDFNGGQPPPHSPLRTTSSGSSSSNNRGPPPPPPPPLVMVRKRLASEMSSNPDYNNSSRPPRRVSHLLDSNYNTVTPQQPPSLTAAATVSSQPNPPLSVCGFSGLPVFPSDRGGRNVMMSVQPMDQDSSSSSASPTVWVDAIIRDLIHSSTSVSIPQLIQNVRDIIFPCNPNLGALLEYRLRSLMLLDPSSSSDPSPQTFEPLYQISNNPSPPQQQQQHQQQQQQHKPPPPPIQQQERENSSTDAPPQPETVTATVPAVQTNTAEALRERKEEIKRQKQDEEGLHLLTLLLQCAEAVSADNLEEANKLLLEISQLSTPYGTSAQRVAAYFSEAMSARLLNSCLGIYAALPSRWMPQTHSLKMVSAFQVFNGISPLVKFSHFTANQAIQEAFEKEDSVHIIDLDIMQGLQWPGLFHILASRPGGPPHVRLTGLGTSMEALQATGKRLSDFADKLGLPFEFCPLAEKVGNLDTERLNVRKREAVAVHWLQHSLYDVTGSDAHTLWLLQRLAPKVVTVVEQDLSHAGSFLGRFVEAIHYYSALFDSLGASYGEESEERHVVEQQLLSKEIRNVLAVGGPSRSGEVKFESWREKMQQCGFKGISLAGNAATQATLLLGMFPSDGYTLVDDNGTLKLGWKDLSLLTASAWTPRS
# B1: SHORTROOT (SHR)-GFP translational fusion (SHR:SHR-GFP) (natural protein)
# chain: MDTLFRLVSLQQQQQSDSIITNQSSLSRTSTTTTGSPQTAYHYNFPQNDVVEECFNFFMDEEDLSSSSSHHNHHNHNNPNTYYSPFTTPTQYHPATSSTPSSTAAAAALASPYSSSGHHNDPSAFSIPQTPPSFDFSANAKWADSVLLEAARAFSDKDTARAQQILWTLNELSSPYGDTEQKLASYFLQALFNRMTGSGERCYRTMVTAAATEKTCSFESTRKTVLKFQEVSPWATFGHVAANGAILEAVDGEAKIHIVDISSTFCTQWPTLLEALATRSDDTPHLRLTTVVVANKFVNDQTASHRMMKEIGNRMEKFARLMGVPFKFNIIHHVGDLSEFDLNELDVKPDEVLAINCVGAMHGIASRGSPRDAVISSFRRLRPRIVTVVEEEADLVGEEEGGFDDEFLRGFGECLRWFRVCFESWEESFPRTSNERLMLERAAGRAIVDLVACEPSDSTERRETARKWSRRMRNSGFGAVGYSDEVADDVRALLRRYKEGVWSMVQCPDAAGIFLCWRDQPVVWASAWRPT
# B2: SCARECROW (SCR)-GFP translational fusion (SCR:SCR-GFP), Q9M384 1-653 (natural protein)
# chain: T1 chain
# Experiments:
# [1] = biological target: SCARECROW (SCR)-mCherry translational fusion (SCR:SCR-mCherry) (Arabidopsis) (UniProt Q9M384); experiment: Cross-Correlation Number and Brightness
# [2] = biological target: SCARECROW (SCR)-mCherry translational fusion (SCR:SCR-mCherry) (Arabidopsis) (UniProt Q9M384); experiment: Cross-Correlation Number and Brightness; remark: listed apart in the source
# [3] = biological target: SHORTROOT (SHR)-GFP translational fusion (SHR:SHR-GFP) (Arabidopsis) (UniProt Q9SZF7); experiment: Number and Brightness
# [4] = biological target: T1, SCARECROW (SCR)-GFP translational …; experiment: Number and Brightness; details: remark: other sources report otherwise
# [5] = biological target: T1, SCARECROW (SCR)-GFP translational …; experiment: Number and Brightness; details: remark: other sources report otherwise
molecule,measurement,setting,value
SHORTROOT (SHR)-GFP translational fusion (SHR:SHR-GFP) (from UniProt Q9SZF7 1-531) (natural protein),percent of SHR-SCR complexes that are 1 SHR: 1 SCR,[1],> 90%
same,percent of SHR-SCR complexes that are 1 SHR: 2 SCR,[1],7%
same,binding score of the 2 SHR: 2 SCR complex,[2],1
same,percent of SHR-SCR complexes that are 1 SHR: 1 SCR,[2],> 90%
same,percent of SHR-SCR complexes that are 1 SHR: 2 SCR,[2],< 5%
same,percent of SHR-SCR complexes that are 2 SHR: 1 SCR,[2],7%
same,percent of SHR-SCR complexes that are 2 SHR: 2 SCR,[2],< 1%
B1,percent homodimer without m4 (scr4 mutant),[3],< 1%
B2,percent homodimer,[4],17.3%
same,stoichiometry N,[4],2
same,percent homodimer,[5],6.6%
